# Patent US20260193326A1 (published 2026)
# Numbering of substitutions follows the chain as printed.
# B1: A4-090 (VHH)
# VHH: VQLQESGGGLVQPGGSLRLSCVASGSRFIINTMGWYRQAPGKQRELVATFTRGGNTNYAESVKGRFTISRDNGKSTVYLQMNSLRPEDTAVYYCHVDEVRESTWTTSNLWGQGTQVTVSS
# B2: A4-093 (VHH)
# VHH: VQLQESGGGLVQTGGSLRLSCAASGSIFIINTMGWYRQRAGKQRELVATVTRGGSTNYADSVKGRFTISRDNAKNTVYLQMNTLRPEDTAVYYCHVDELRQSSWTTSNLWGQGTQVTVSS
# B3: A4-099 (VHH)
# VHH: VQLQESGGGLVQTGGSLRLSCAASGSSFSINTMGWYRQAPGKWRELVAAVTRGGDTNYAESVKGRFTISRDNGKNTVYLQMNSLRPEDTAVYYCHIDEIRESSWTTSNLWGQGTQVTVSS
# B4: A4-092 (VHH)
# VHH: B2 VHH with A22L, I29S, G53A, T83S, L99I, Q101E
# B5: A4-112 (VHH)
# VHH: VQLQESGGGLVQTGGSLRLSCIASGSIFSINTVGWYRQAPPKQRELVATVTRAGSTWYAGSVKGRFTISRDNAKNTIYLQMNTLRPEDTAVYYCHVDEVRQSTWTTSNIWGQGTQVTVSS
# B6: A4-113 (VHH)
# VHH: B5 VHH with I22V, I27R, P41G, A53G, A73T, T83S, V99I, I109L
# B7: A4-108 (VHH)
# VHH: VQLQESGGGLAQPGGSLRLSCLASGSGFSINTMGWYRQAPPKWRELVATVTRGGSTNYAGSVKGRFTISRDNPKNTVYLQMNSLRPEDTAVYYCHLDEVRQSTWTTSNIWGQGTQVTVSS
# B8: A4-103 (VHH)
# VHH: VQLQESGGGLVQPGGSLRLSCAASGSIFSLNAMGWYRQAPGKQRELVATITRGGSTNYADSVKGRFTISRDNAKNTVYLQMNSLRPEDTAVYYCHVDEVRESIWTTSNLWGQGTQVTVSS
# B9: A4-104 (VHH)
# VHH: B8 VHH with A32S, R52S, D60G, S83N, R85Q, I103S
# B10: A4-102 (VHH)
# VHH: VQLQESGGGLVQPGGSLRLSCAASGSHFTINSVGWYRQAPGKQRELVAPVTRGGTTNYADFVKGRFTISRDNAKNTVYLQMNSLRPEDTAVYYCHVDELRDSSWTTSNLWGQGTQVTVSS
# B11: A4-107 (VHH)
# VHH: B7 VHH with A11V, L22I, M33V, P41A, W43Q, V50L, G60D, L96V, T103S
# B12: A4-110 (VHH)
# VHH: VQLQESGGGLVQPGGSLRLSCFASGTNFSINVVGWYRQAPGKQRELVATITRGGSTNYAESVKGRFTISRDNAKNTVYLQMNNLRPEDTAVYYCHLDEVRDSSWTTSNLWGQGTQVTVSS
# B13: A4-101 (VHH)
# VHH: B8 VHH with I27R, L30I, A32I, T49S, I50V, S55T, A73P, V77I, V99I, I103T
# B14: A4-109 (VHH)
# VHH: B8 VHH with P13A, S26T, A32V, T49S, I50V, S55N, N75T, V99L, E101D, I103T
# B15: A4-106 (VHH)
# VHH: B8 VHH with A22I, R52S, V77A, S83N, R85Q
# B16: A4-012 (VHH)
# VHH: B8 VHH with L10A, P13A, L30I, A32S, I50V, S55N, D60G, I103S
# B17: A4-011 (VHH)
# VHH: B8 VHH with P13A, L30I, A32S, I50V, S55N, D60G, I103S
# B18: A4-024 (VHH)
# VHH: B8 VHH with I27N, S29R, L30I, A32T, I50V, A73P, I103S
# B19: A4-021 (VHH)
# VHH: B8 VHH with P13A, I27T, L30I, A32T, S55N, E101Q, I103S, L109I
# B20: A4-001 (VHH)
# VHH: B7 VHH with A11V, L22A, S26R, G27S, P41G, W43Q, P73A, L96I, T103S
# Molecular target: T1, AAV5 (adeno-associated virus 5)
# T1 construct: also called adeno-associated virus serotype 5
# Test: SPR, AAV amine-coupled to CM5 chip;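 also: nanobodies flowed as analyte at seven concentrations spanning 1–100 nM over immobilized AAV (500–800 RU), kinetic constants derived by fitting the binding curves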
# Procedure: (§1) AAV was amine-coupled to a CM5 sensor chip at a density of 500-800 response units (RU). Nanobodies were injected at seven concentrations (1-100 nM) with a flow rate of 45 μL/min, and chip regeneration was performed using glycine-HCl (pH 1.5). Binding curves at different nanobody concentrations were used to calculate kinetic parameters (Kₐ, Kd, KD) (Table 2 and FIG. 2).
Binder,Kd [µM],koff [s⁻¹],kon [M⁻¹ s⁻¹]
B1,0.121,0.00186,15300
B2,0.00821,0.00114,139000
B3,0.00419,0.00041,98000
B4,0.000194,1e-05,51600

# Molecular target: T2, AAV8 (adeno-associated virus 8)
# T2 construct: also called adeno-associated virus serotype 8
# Test: SPR, AAV amine-coupled to CM5 chip;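 also: nanobodies flowed as analyte at seven concentrations spanning 1–100 nM over immobilized AAV (500–800 RU), kinetic constants derived by fitting the binding curves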
# Procedure: as §1
Binder,Kd [µM],koff [s⁻¹],kon [M⁻¹ s⁻¹]
B1,0.0145,0.00109,75300
B2,0.0118,0.00196,166000
B3,0.00257,0.0005,194000
B4,0.000106,2e-05,188000

# Molecular target: T3, AAV9 (adeno-associated virus 9)
# T3 construct: also called adeno-associated virus serotype 9
# Test: SPR, AAV amine-coupled to CM5 chip;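 also: nanobodies flowed as analyte at seven concentrations spanning 1–100 nM over immobilized AAV (500–800 RU), kinetic constants derived by fitting the binding curves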
# Procedure: as §1
Binder,Kd [µM],koff [s⁻¹],kon [M⁻¹ s⁻¹]
B1,0.0249,0.0015,60400
B2,0.0155,0.0011,70800
B3,0.000203,3e-05,148000
B4,0.00106,9e-05,84900

# Molecular target: T4, AAV2 (adeno-associated virus 2, UniProt P03135 1-735)
# T4 construct: also called adeno-associated virus serotype 2
# Test: SPR, AAV amine-coupled to CM5 chip;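 also: nanobodies flowed as analyte at seven concentrations spanning 1–100 nM over immobilized AAV (500–800 RU), kinetic constants derived by fitting the binding curves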
# Procedure: as §1
Binder,Kd [µM],koff [s⁻¹],kon [M⁻¹ s⁻¹]
B1,0.00683,0.00136,199000
B2,0.046,0.00103,22400
B3,0.00106,0.00021,197000
B4,0.00109,6e-05,55100

# Molecular target: T5, AAV9 (adeno-associated virus serotype 9)
# T5 construct: also called adeno-associated virus serotype 9
# Test: SPR, AAV on CM5 chip;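 also: surface plasmon resonance with AAV amine-coupled to the chip as ligand, nanobodies injected as analyte over a concentration series, rate constants and affinity fitted from binding curves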
# Procedure: as §1
Binder,Kd [µM],koff [s⁻¹],kon [M⁻¹ s⁻¹]
B5,0.0366,0.0052,142000
B6,0.0525,0.00051,9720
B7,0.00354,0.00061,172000
B8,0.0812,0.00107,13200
B9,0.451,0.00093,2060
B10,0.0308,0.00465,151000
B11,1.68,0.00356,2120
B12,0.347,0.0014,4040
B13,0.0134,9e-05,6700
B14,0.0424,0.00071,16800
B15,0.00165,0.00011,66600

# Molecular target: T6, AAV2 (UniProt P03135 1-735)
# T6 construct: also called adeno-associated virus serotype 2
# Test: SPR, AAV on CM5 chip;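 also: surface plasmon resonance with AAV amine-coupled to the chip as ligand, nanobodies injected as analyte over a concentration series, rate constants and affinity fitted from binding curves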
# Procedure: as §1
Binder,Kd [µM],koff [s⁻¹],kon [M⁻¹ s⁻¹]
B16,1.18,0.0554,47000
B17,0.284,0.0462,163000
B18,0.639,0.00069,–
B19,0.000798,4.37e-05,54800
B20,0.00106,6.35e-05,60100

# Molecular target: T7, AAV8 (adeno-associated virus serotype 8)
# T7 construct: also called adeno-associated virus serotype 8
# Test: SPR, AAV on CM5 chip;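 also: surface plasmon resonance with AAV amine-coupled to the chip as ligand, nanobodies injected as analyte over a concentration series, rate constants and affinity fitted from binding curves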
# Procedure: as §1
Binder,Kd [µM],koff [s⁻¹],kon [M⁻¹ s⁻¹]
B5,0.00111,0.00021,188000
B6,0.00325,2e-05,6150
B7,0.00794,0.00085,107000
B8,0.0351,0.00182,51900
B9,0.0105,3e-05,2860
B10,0.00786,0.0006,76300
B11,0.848,0.00101,1190
B12,0.86,0.00596,6930
B13,0.162,0.00129,7970
B14,0.00227,0.00035,154000
B15,0.016,0.00191,120000

# Molecular target: T8, AAV8
# T8 construct: also called adeno-associated virus serotype 8
# Test: SPR, AAV on CM5 chip;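 also: surface plasmon resonance with AAV amine-coupled to the chip as ligand, nanobodies injected as analyte over a concentration series, rate constants and affinity fitted from binding curves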
# Procedure: as §1
Binder,Kd [µM],koff [s⁻¹],kon [M⁻¹ s⁻¹]
B16,0.324,0.00417,12900
B17,0.0304,0.00272,89400
B18,0.209,0.00148,7080
B19,0.00741,0.00155,209000
B20,0.00364,0.000669,184000

# Molecular target: T9, AAV5
# T9 construct: also called adeno-associated virus serotype 5
# Test: SPR, AAV on CM5 chip
# Procedure: as §1
Binder,Kd [µM],koff [s⁻¹],kon [M⁻¹ s⁻¹]
B16,0.0186,0.00173,93100
B17,0.0296,0.00028,9460
B18,0.0355,0.00013,3670
B19,0.00781,0.00094,120000
B20,0.00647,0.00098,151000

# Molecular target: T10, AAV9
# T10 construct: also called adeno-associated virus serotype 9
# Test: SPR, AAV on CM5 chip
# Procedure: as §1
Binder,Kd [µM],koff [s⁻¹],kon [M⁻¹ s⁻¹]
B16,0.672,0.0694,103000
B17,0.132,0.0582,439000
B18,0.251,0.00173,6900
B19,0.00187,0.00014,74700
B20,0.142,0.0116,81600

# Molecular target: T11, AAV5 (adeno-associated virus serotype 5)
# T11 construct: also called adeno-associated virus serotype 5
# Test: SPR, AAV on CM5 chip
# Procedure: as §1
Binder,Kd [µM],koff [s⁻¹],kon [M⁻¹ s⁻¹]
B5,0.0316,0.00412,130000
B6,0.218,0.00145,6660
B7,0.00712,0.00105,148000
B8,0.0269,0.00137,51000
B9,0.044,0.00037,8420
B10,0.0404,0.007,173000
B11,0.703,0.00353,5020
B12,0.0378,0.00035,9270
B13,0.0708,0.00034,4800
B14,0.00374,0.00022,58800
B15,0.00212,0.00042,198000
